Experimental data: IntAct's records for PubMed 12813456

B1: Protein E7 (Human papillomavirus type 16), P03129 (parent)
chain: MHGDTPTLHEYMLDLQPETTDLYCYEQLNDSSEEEDEIDGPAGQAEPDRAHYNIVTFCCKCDSTLRLCVQSTHVDIRTLEDLLMGTLGIVCPICSQKP

Variants of: B1
Settings: with kat2b_human KAT2B

| Variant | effect of a mutation on the interaction |
| --- | --- |
| L67A | decreasing interaction strength |
